According to article PMC7762956 (The Journal of Biological Chemistry, 2020):

B1: murine Ifit1b with a C-terminal His8 tag (natural protein)
chain: MEQLLSPSNMSEESHKSHIHDSLDELRCHFTWELDIKDKHIHDLEIKISETEFRDPIYSIGMHNLLAYVRHLKGQQDEALQSLKEAEALIQSEQLSKRSLATWGNCAWLHYHRGSLAEAQVYLDKVEKVCKEFSSPFRYRLECAEMDCEEGWALRKCGSQNYTRAMACFERALKVEPENPEYNAGYADVAYHLDYYDGNSLQPLKKAVSVKPEDPYLKVLLALKLQDLRKTDEAEKHIKEATLTISSQNNIFGYVAKFYRRKGCVEEALGFLKKALETKPSSPYLHFQIGLCHKTQFFQMKKATSRENRKRADQSCHLAICHFKKTLELKPTYDRAYIDLAEVYAKNHQQKEAEDNFQEVLSMSNLGDYMQQEIHFRYGNFQQYYKKSEEAAITHYLKGLKIEVTSHYRDKLLKALEELAEGRKEDHVLESLSLLGLVCRLRGDTSEAMSCYEKALRLTGAVNPEF
B2: murine Ifit1 with a C-terminal His8 tag (natural protein)
chain: MGENADGDQVMENLLQLRCHFTWKLLFENNDIPDLEVRISEQVQFLDIKNPLGMHNLLAYVRHLKGQQDEALQSLKEAEALIQSEQLSKRSLATWGNCAWLHYHRGSLAEAQIYLDKVEKVCKEFSSPFRYRLECAEMDCEEGWALLKCGGGNYKQAMACFAKALKVEPENPEYNTGYAVVAYRQDLDDNFISLEPLRKAVRLNPEDPYLKVLLALKLQDLGEHVEAEAHIEEALSSTSCQSYVIRYAAKYFRRKHRVDKALHLLNRALQASPSSGYLHYQKGLCYKQQISQLRTSRNRQPRRQDNVQELAQQAIHEFQETLKLRPTFEMAYVCMAEVQAEIHQYEEAERNFQKALNNKTLVAHIEQDIHLRYGRFLQFHKQSEDKAITLYLKGLKVEEKSFAWRKLLTALEKVAERRVCQNVHLVESTSLLGLVYKLKGQEKNALFYYEKALRLTGEMNPAF

Biological target: the molecule itself
Experiment: SEC

Protein	stoichiometry N
B1	2
B2	2
